# Experiments:
# [1] = system: human enolase alpha (ENO1) (Homo sapiens); experiment: EMSA; settings: apparent Kd, one value given for all three isoforms; none (unmodified transcript); 20 mM Tris-HCl pH 7.5, 150 mM NaCl, 10 mM MgCl2, 5 mM DTT, 10% glycerol, 0.1 mg/mL BSA, 30 C 15 min; native 8% PAGE in 0.5x Tris-borate pH 8.3, 5% glycerol
# [2] = system: human enolase beta (ENO3, muscle) (Homo sapiens); experiment: EMSA; settings: apparent Kd, one value given for all three isoforms; none (unmodified transcript); 20 mM Tris-HCl pH 7.5, 150 mM NaCl, 10 mM MgCl2, 5 mM DTT, 10% glycerol, 0.1 mg/mL BSA, 30 C 15 min; native 8% PAGE in 0.5x Tris-borate pH 8.3, 5% glycerol
# [3] = system: human enolase gamma (ENO2, neuronal) (Homo sapiens); experiment: EMSA; settings: apparent Kd, one value given for all three isoforms; none (unmodified transcript); 20 mM Tris-HCl pH 7.5, 150 mM NaCl, 10 mM MgCl2, 5 mM DTT, 10% glycerol, 0.1 mg/mL BSA, 30 C 15 min; native 8% PAGE in 0.5x Tris-borate pH 8.3, 5% glycerol
# [4] = system: preKARS2 (precursor of mitochondrial lysyl-tRNA synthetase) (Homo sapiens); experiment: EMSA; settings: apparent Kd with human enolase gamma present; no ternary complex detected; none (unmodified transcript); 20 mM Tris-HCl pH 7.5, 150 mM NaCl, 10 mM MgCl2, 5 mM DTT, 10% glycerol, 0.1 mg/mL BSA, 30 C 15 min; native 8% PAGE in 0.5x Tris-borate pH 8.3, 5% glycerol
# [5] = system: preKARS2 (precursor of mitochondrial lysyl-tRNA synthetase) (Homo sapiens); experiment: EMSA, Scatchard; settings: no enolase; 0.5 uM preKARS2 (Methods print 0.5 mM); none (unmodified transcript); 20 mM Tris-HCl pH 7.5, 150 mM NaCl, 10 mM MgCl2, 5 mM DTT, 10% glycerol, 0.1 mg/mL BSA, 30 C 15 min; native 8% PAGE in 0.5x Tris-borate pH 8.3, 5% glycerol
substance,measurement,setting,value
tRK1 (yeast tRNALys acceptor 1) T7 transcript,Kd,[1],2000 nM
same,Kd,[2],2000 nM
same,Kd,[3],2000 nM
same,Kd,[4],< 20 nM
same,Kd,[5],300 nM

# From publication PMC4463592
